According to patent US20100216663A1:
pKd: −log10 of the molar value.

Biological target: human IgE (human) (UniProt P01854)
Assay: Biacore, human IgE on CM5 chip, sample protein in flow

Chain of human IgE (human) (P01854 other isoform, or with tags, fused parts or gaps): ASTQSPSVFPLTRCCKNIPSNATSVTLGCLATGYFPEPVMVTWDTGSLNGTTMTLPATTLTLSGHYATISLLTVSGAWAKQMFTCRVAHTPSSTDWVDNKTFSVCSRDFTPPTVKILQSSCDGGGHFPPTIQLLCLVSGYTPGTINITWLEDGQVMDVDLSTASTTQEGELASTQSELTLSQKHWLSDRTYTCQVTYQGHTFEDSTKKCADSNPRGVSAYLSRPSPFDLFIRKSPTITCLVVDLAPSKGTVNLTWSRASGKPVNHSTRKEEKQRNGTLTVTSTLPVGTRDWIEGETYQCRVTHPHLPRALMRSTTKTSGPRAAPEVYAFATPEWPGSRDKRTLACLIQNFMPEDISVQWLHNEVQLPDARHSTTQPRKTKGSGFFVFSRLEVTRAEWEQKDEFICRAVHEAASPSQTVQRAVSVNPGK

pKd: 6.35
Substance: recombinant human FcERI protein (from UniProt P12319 26-205) (receptor)
